{"source": "paper PMC3242593", "about": "“Influence of glioma tumour microenvironment on the transport of ANG1005 via low-density lipoprotein receptor-related protein 1” (British Journal of Cancer, 2011)", "tested_on": "U87 human glioblastoma cells", "assay": "[125I]-Angiopep-2 or [125I]-ANG1005 uptake assay in U87 cells (LRP1-mediated endocytosis)", "type": "cell-based", "settings": "unlabelled Angiopep-2 50 μM or preincubated RAP 1 μM, percentage of control, quadruplicate", "method": "In brief, beads were washed twice with 3 ml of PBS on a Whatman filter and resuspended in 60 μl of PBS. Na^125I (1 mCi) from GE Healthcare (Baie d’Urfé, QC, Canada) was added to the bead suspension for 5 min at room temperature. Iodination was initiated by adding 100 μg of peptide (80–100 μl) diluted in 0.1 M phosphate buffer solution, pH 6.5.\nIn-vitro silencing of LRP1 was carried out by standard methodologies ([Song et al, 2009]). The sequences of oligonucleotides were […]tt (sense) and […]tt (antisense). Human U87 glioblastoma cells were grown to 50% confluence and were transfected with LRP1 silencing RNA (siRNA) using Lipofectamine 2000 (Life Technologies Corporation, Carlsbad, CA, USA) according to the manufacturer's specifications. After 48 h of transfection, cells were used for subsequent assays. Expression of proteins was assessed by western blot analysis.\nCells were incubated in medium in which the sodium bicarbonate had been replaced with Ringer/HEPES buffer (150 mM NaCl, 5.2 mM KCl, 2.2. mM CaCl2, 0.2 mM MgCl2·6H2O, 6 mM NaHCO3, 2.8 mM glucose, and 5 mM HEPES). […]\nCells were seeded in a 24-well plate (5 × 10^4 cells per well) in appropriate media and fed for 3 days. […] Results were quantified with a Wizard 1470 Gamma counter (Perkin-Elmer, Woodbridge, ON, Canada). […]", "data": [{"molecule": "RAP: receptor-associated protein, a known LRP1 ligand that competitively inhibits uptake of Angiopep-2 (protein, UniProt P30533 35-357, looked up) Alpha-2-macroglobulin …: YSREKNQPKPSPKRESGEEFRMEKLNQLWEKAQRLHLPPVRLAELHADLKIQERDELAWKKLKLDGLDEDGEKEARLIRNLNVILAKYGLDGKKDARQVTSNSLSGTQEDGLDDPRLEKLWHKAKTSGKFSGEELDKLWREFLHHKEKVHEYNVLLETLSRTEEIHENVISPSDLSDIKGSVLHSRHTELKEKLRSINQGLDRLRRVSHQGYSTEAEFEEPRVIDLWDLAQSANLTDKELEAFREELKHFEAKIEKHNHYQKQLEIAHEKLRHAESVGDGERVSRSREKHALLEGRTKELGYTVKKHLQDLSGRISRARHNEL", "values": [{"measurement": "effect of unlabelled competitor on uptake of [125I]-Angiopep-2 (500 nM)", "result": "inhibited"}]}]}
